Experimental data from article PMC10201424, “Biochemical characterisation of Mer3 helicase interactions and the protection of meiotic recombination intermediates” (Nucleic Acids Research, 2022).

What was measured:
MBP-Mlh1;MBP-Mlh2 = target: T1, MBP-Mlh1;MBP-Mlh2 (Saccharomyces cerevisiae;Saccharomyces …, UniProt P38920;Q07980 1-769;1-695, |); test: EMSA; robust binding; EMSA: 25 mM HEPES pH 7.5, 0.1 ug/ul BSA, 60 mM NaCl, 10 nM DNA, 20 min at 30 C; 0.8% agarose in 1x TAE; Mer3 37.5-300 nM, Mlh1-Mlh2 20-150 nM; conditions: protein: recombinant;recombinant; tags: N-terminal 6xHis-MBP;N-terminal 6xHis-MBP; copies: 1;1; label: 5'-FAM on strand 1; synthetic D-loop of 4 annealed oligos
T1 sequence 1: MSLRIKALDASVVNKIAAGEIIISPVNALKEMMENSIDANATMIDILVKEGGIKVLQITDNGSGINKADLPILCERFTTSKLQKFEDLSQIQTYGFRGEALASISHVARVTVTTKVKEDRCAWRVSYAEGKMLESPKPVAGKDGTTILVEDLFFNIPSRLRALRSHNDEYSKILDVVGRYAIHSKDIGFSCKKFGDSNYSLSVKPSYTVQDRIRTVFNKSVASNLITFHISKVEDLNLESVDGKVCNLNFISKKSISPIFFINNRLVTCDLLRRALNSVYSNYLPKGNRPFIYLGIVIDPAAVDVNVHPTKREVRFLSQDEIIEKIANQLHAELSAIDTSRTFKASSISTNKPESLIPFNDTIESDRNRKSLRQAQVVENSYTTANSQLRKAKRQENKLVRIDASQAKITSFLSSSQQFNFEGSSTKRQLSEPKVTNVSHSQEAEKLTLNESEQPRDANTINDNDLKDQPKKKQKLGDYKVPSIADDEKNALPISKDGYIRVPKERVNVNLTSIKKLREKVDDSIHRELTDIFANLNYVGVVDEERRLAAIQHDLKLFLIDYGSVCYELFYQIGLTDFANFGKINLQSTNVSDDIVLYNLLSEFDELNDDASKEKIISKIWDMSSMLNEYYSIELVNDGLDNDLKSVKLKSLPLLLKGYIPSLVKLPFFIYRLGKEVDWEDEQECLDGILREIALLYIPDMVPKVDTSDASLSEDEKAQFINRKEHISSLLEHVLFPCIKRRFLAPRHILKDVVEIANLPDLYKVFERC
T1 sequence 2: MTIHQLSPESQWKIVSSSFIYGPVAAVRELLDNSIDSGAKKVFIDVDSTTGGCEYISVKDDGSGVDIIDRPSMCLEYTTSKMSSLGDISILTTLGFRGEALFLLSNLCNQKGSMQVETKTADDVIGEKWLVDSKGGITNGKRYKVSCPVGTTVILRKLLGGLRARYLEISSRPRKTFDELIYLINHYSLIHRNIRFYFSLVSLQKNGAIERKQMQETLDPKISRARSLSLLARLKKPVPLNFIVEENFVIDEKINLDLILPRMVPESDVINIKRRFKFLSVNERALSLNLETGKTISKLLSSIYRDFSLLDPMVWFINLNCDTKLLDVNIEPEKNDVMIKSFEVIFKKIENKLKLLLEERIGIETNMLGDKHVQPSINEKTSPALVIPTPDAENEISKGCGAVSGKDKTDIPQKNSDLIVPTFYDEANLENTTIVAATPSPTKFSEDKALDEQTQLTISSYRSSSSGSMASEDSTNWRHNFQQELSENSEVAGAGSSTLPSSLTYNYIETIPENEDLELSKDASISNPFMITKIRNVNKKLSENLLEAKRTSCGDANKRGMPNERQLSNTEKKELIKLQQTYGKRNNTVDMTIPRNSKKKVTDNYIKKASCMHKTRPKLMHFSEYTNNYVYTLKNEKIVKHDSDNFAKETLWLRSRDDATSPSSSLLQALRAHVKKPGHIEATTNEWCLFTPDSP

His-Mlh1;Strep-Mlh2 = target: T2, His-Mlh1;Strep-Mlh2 (Saccharomyces cerevisiae;Saccharomyces …, UniProt P38920;Q07980 1-769;1-695, |); test: as above; conditions: protein: recombinant;recombinant; tags: N-terminal 6xHis;N-terminal Twin-StrepII; copies: 1;1; label: 5'-FAM on strand 1; synthetic D-loop of 4 annealed oligos
T2 sequence 1: T1 sequence 1
T2 sequence 2: T1 sequence 2

Mer3 = target: T3, Mer3 (Saccharomyces cerevisiae, UniProt P51979 1-1187); test: EMSA; no Mg or ATP; high affinity; EMSA: 25 mM HEPES pH 7.5, 0.1 ug/ul BSA, 60 mM NaCl, 10 nM DNA, 20 min at 30 C; 0.8% agarose in 1x TAE; Mer3 37.5-300 nM, Mlh1-Mlh2 20-150 nM; conditions: protein: recombinant; tags: C-terminal Twin-StrepII; label: 5'-FAM on strand 1; synthetic D-loop of 4 annealed oligos
T3 sequence: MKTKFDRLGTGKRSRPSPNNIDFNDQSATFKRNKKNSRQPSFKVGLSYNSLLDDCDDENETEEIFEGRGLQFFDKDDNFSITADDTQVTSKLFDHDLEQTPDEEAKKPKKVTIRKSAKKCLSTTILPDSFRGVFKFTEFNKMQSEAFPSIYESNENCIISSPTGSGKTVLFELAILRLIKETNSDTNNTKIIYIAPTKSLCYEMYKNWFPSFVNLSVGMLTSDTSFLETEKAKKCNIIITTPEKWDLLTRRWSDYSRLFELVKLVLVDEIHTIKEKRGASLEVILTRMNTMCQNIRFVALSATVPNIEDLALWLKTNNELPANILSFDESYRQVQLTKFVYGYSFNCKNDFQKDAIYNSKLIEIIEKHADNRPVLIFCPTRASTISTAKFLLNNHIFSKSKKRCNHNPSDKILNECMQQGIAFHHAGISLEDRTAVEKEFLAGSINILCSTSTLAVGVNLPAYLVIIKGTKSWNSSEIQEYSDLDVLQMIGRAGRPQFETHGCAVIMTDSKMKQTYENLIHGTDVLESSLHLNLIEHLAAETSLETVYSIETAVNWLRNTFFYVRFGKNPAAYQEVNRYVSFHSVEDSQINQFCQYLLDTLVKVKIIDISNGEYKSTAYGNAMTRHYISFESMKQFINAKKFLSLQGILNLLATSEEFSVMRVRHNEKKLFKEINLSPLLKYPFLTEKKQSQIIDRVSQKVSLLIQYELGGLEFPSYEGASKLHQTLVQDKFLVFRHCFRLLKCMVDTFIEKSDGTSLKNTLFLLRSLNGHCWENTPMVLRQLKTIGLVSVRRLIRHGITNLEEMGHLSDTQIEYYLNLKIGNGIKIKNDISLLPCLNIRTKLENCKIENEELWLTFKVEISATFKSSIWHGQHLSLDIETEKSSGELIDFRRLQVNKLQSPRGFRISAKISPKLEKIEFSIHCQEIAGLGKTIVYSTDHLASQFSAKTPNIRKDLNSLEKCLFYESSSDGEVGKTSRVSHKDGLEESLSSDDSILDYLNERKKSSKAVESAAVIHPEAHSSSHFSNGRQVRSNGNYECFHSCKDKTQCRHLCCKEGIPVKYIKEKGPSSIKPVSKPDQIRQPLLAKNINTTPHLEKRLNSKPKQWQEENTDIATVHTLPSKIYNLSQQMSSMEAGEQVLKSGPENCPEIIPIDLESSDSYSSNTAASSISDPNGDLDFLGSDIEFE

Measured: binding result

B1: D-loop (1253-T, 315, 320, X12-3SC) (mixed)
DNA 1: GGGTCAACGTGGGCAAAGATGTCCTAGCAATGTAATCGTCTATGACGTT
DNA 2: AACGTCATAGACGATGATCCGATGCATATCCGCCTGCCCACGTTGACCC
DNA 3: GCGATAGTCTCTAGACAGCATGTCCTAGCAATACATTGCTAGGACATCTT
DNA 4: TTGCTAGGACATGCTGTCTAGAGACTATCGC
binds: all assays above
